Tests used:
B16F10 tumor = test: Syngeneic B16F10 tumor model, tumor growth and tumor T cell influx; type: in vivo, C57BL/6 mice
Method: B16F10 model was established in female C57BL/6 mice by subcutaneous injection of 0.5×10^6 cells into the right flank of each mouse. On day 7 once tumors reached approximately 30 mm^3, mice were randomized according to tumor volume into treatment groups (n=10 per group). Mice received treatment of either anti-mouse ENTPD2 mAb13 at a final dose 15 mg/kg, anti-PD-1 Ab (clone RMP1-14 Bio X Cell, West Lebanon, NH) i.p. at a final dose of 10 mg/kg or the combination of both treatments on days 1, 5, and 8. All doses were adjusted to individual mouse body weights.
In order to understand the impact of treatments on the tumor microenvironment, mice were euthanized on day 8 and tumors were dissociated in HyClone RPMI1640 media (GE Healthcare, Pittsburgh, PA) using gentleMacs C-tubes (Miltenyi Biotec, Auburn, CA) on the gentleMacs Octo Dissociator (Miltenyi Biotec, Auburn, CA). Approximately 2×10^6 dissociated tumor cells were blocked with rat anti-mouse CD16/CD32 Ab (Biolegend, San Diego, CA) to reduce non-specific FcyRIII/II binding and subsequently stained with the following cocktail of Abs: rat anti-mouse CD45-BUV395 (clone 30-F11) (BD Biosciences, San Jose, CA), rat anti-mouse CD8a-BUV737 (clone 53-6.7) (BD Biosciences, San Jose, CA), rat anti-mouse CD4-BV510 (clone RM4-5) (BD Bioscience, San Jose CA), anti-mouse CD69-PercPCy5.5 (clone H1-2F3) (Biolegend, San Diego, CA) and rat anti-mouse CD25-eFluor450 (clone eBio3C7) (eBioscience, San Diego, CA) at the manufacturers' recommended dilutions. All incubations and washes were performed in FACS Buffer composed of 1× HyClone Phosphate Buffered Saline (GE Healthcare, Pittsburgh, PA), 1% HyClone Fetal Bovine Serum (GE Healthcare, Pittsburgh, PA), 2 mM EDTA (ThermoFisher, Waltham MA). After staining with the cell surface antigen antibody cocktail, dissociated tumor cells were washed in FACS buffer, fixed and permeabilized using the eBioscience Foxp3/Transcription Factor Staining Buffer Kit (ThermoFisher, Waltham MA) to allow for intracellular staining with the mouse anti-mouse FOXP3-eFluor660 (clone 150D/E4) (eBioscience, San Diego, CA).

mouse ENTPD2 = biological target: T1, mouse ENTPD2 (Mus musculus, UniProt O55026); test: Mouse ENTPD2 NIH/3T3 cell-based functional assay
T1 construct: expressed in transfected cells
T1 sequence (O55026 1-495): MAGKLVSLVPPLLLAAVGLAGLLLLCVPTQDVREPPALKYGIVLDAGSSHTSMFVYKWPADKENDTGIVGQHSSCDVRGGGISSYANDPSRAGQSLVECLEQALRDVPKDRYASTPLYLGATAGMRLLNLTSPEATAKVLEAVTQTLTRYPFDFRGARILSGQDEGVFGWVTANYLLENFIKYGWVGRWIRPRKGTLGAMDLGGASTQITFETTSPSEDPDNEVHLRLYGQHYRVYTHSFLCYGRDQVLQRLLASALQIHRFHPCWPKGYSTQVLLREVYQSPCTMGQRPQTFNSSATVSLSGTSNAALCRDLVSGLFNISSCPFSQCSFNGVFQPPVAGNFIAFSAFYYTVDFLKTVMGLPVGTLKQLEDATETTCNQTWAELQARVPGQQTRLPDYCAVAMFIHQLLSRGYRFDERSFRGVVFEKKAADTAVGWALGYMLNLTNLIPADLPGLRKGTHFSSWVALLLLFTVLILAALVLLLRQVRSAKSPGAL
Description: Biochemical and cell-based functional assays were developed in-house to understand functional impact of anti-ENTPD2 Abs against purified extracellular domain of ENTPD2 (residues 29-462), as well as against the fully intact protein in the context of the native cell-based conformation. ENTPD2 hydrolyzes ATP to ADP, which can subsequently be detected using the HTRF Transcreener ADP2 TR-FRET Red Assay (BellBrook Labs, Madison, WI) where ENTPD2-produced ADP would compete with the ADP Tracer for binding to the anti-ADP-Tb antibody. The resulting signal is inversely proportional to the concentration of ADP in the sample.
To establish cell-based functional assays, human/cyno/mouse ENTPD2-engineered NIH/3T3 cells or RKO (ATCC, Manassa VA) colorectal cancer cells with endogenous ENTPD2 expression were plated overnight at 150, 200 and 250 cells per well for NIH/3T3 mouse, cyno and human ENTPD2 lines, respectively, or 1000 cells per well for RKO in 384-well tissue culture plate, in 30 μl per well (Perkin Elmer, Waltham, MA). […] ADP production was detected with the Transcreener ADP2 TR-FRET Red Assay (BellBrook Labs, Madison, WI) with a final concentration of 4 nM ADP2 antibody and 13.4 nM of ADP Tracer in wells (4× solution was prepared and 5 μL of “Detection Reagent Mix” was added to the quenched conditioned media). […]

[1] = mAb13 and anti-PD-1 Ab combination, day 8

B1: mAb13: anti-mouse ENTPD2 monoclonal antibody, VH SEQ ID NO: 191, VL SEQ ID NO: 202 (antibody, V domains shown)
VH: QVQLVQSGAELKQPGQSVKISCKASGYTFTHYGMNWVKQAPGQGLKWMGWINTDTGNPTYADDFKGRFVFSLDTSVSTAYLQISNLKNEDTATYYCVRYGTLYSGYGFFFDSWGQGTLVTVSS
VL: DIMMTQSPSSLSVSAGEKATITCKSSQSLFNSNTNKNYLNWYLQKPGQSPKLLFYYASTRHTGVPDRFIGSGSGTDFTLTITSVQDEDLADYYCQQWYSYPWTFGPGTKLEIK
For B1, the “tumor growth relative to No Treatment control, combination” value (B16F10 tumor; mAb13 15 mg/kg in combination with anti-PD-1 Ab 10 mg/kg, days 1, 5, 8) was “significant reduction in tumor growth”, the “anti-tumor efficacy, treatment alone” value (B16F10 tumor; mAb13 15 mg/kg or anti-PD-1 Ab 10 mg/kg i.p. alone, days 1, 5, 8) was “No significant anti-tumor efficacy” and the “activated CD4 T-helper cells (CD45+ CD8− CD4+ FOXP3− CD69+ CD25+) in tumor, increase vs No Treatment” value (B16F10 tumor; [1]) was 7.0 fold. For the same molecule, the “activated CD8 T cells (CD45+ CD4− CD8+ CD69+ CD25+) in tumor, change vs No Treatment” value (B16F10 tumor; [1]) was 5.8 fold, the “% Inhibition at 100 nM (±Std Err)” value (mouse ENTPD2; 100 nM antibody, mouse ENTPD2 NIH/3T3 cells) was 44 ± 7.3% and the “maximum target inhibition (mouse ENTPD2 inhibition)” value (mouse ENTPD2; NIH3T3-mouse ENTPD2 engineered cell line) was 44%.

— patent US11939397B2, “ENTPD2 antibodies, combination therapies, and methods of using the antibodies and combination therapies” (Novartis AG, priority 2018, dated 2024)
